From patent US20100029554A1, “Composition and Methods for Treatment of Congestive Heart Failure” (Amylin Pharmaceuticals, Inc., priority 2006, published 2010) come the findings set out here.

Where a SMILES comes first, the peptide text is derived from it. Where no end group is shown, it is not given here. [ ]: non-standard residue; d: D form. Gly(octyl) = CCCCCCCC[C@H](N)C(=O)O

One data set is described as follows: Plasma stability. The note with it: 20 μg/mL in plasma, 37° C., 0-5 hours. Type of data set: in vitro ADME. How it is done:
To assess stability, the compound of interest is spiked into plasma at a concentration of 20 μg/mL. It is incubated at 37° C. for 0, 1, 2 3, 4, 5 hours in triplicate. At each time point, MeOH is added to a 96 well microtiter plate and then sample is added in a ratio of 1 part sample to 4 parts MeOH to quench the digestion reaction. Samples are mixed with multi-channel pipette or liquid handler. The plate is then centrifuged for 10 minutes and placed in an autosampler kept at 10° C. Samples are then injected into a mass spectrometer (API 3000, Applied Biosystems) equipped with an autosampler (Leap HTC Pal) and HPLC pumps (Shimadzu LC-10ADVP).

The subject of another data set is NH/Swiss mice. Nature of the data set: Glucose lowering assay. In kind it is in vivo, mouse. To be noted: IP, 2 nmol/kg, change in blood glucose relative to vehicle. How it is done:
Female NH/Swiss mice (˜8-20 weeks of age), (Harlan, Indianapolis, Ind., USA), housed 3 mice per cage, are allowed ad libitum access to food and water until the start of the experiment. At two hours prior to treatment, access to food is restricted.
At the time of treatment, the tip of the tail is pricked with a needle to obtain 1 μl blood as a “pre-treatment” control blood sample. Immediately thereafter, each mouse is injected intraperitoneally (IP) with a test sample (1 nmol/kg or 2 nmol/kg) or 200 μl vehicle (10% DMSO saline). Additional blood samples are collected at 30, 60, 120, 180, and 240 minutes after injection.
Blood glucose is measured with a glucose oxidase biosensor (OneTouch® Ultra® (LifeScan, Inc., a Johnson & Johnson Company, Milpitas, Calif.)). At each time point, the effect of the test sample is expressed as the percent change in blood glucose relative to mice injected with vehicle only. Test samples and vehicle controls are also compared to their respective “pre-treatment” controls.
Significant test sample effects are identified by ANOVA (p<0.05). Where a significant difference existed, test means are compared to the control mean with Dunnett's post test using GraphPad Prism version 4.00 for Windows, GraphPad Software, San Diego Calif. USA, www.graphpad.com).

The test system of data set [1] is GLP/GIP/CT cyclase, RIN-m5F cells. The experiment in a line: GLP/GIP/CT Cyclase (RIN) assay. Type of data set: cell-based, rat. The note with it: cAMP, values without **. How it is done:
GLP/GIP/CT Cyclase (RIN) Assay
Five μl of serially diluted peptides are transferred to the 384-well assay plate. Rat pancreas insulinoma cells (RIN-m5F) are detached from a tissue culture flask with Versene and washed once in buffer. Then RIN-m5F cells are resusupended in buffer at 2.5×10^6 cells/ml. Then 10 μl cells (2.5×10^4 cells) are added to all wells of the assay plate and cells are stimulated at room temperature in the dark for 30 minutes. The reaction is terminated with 10 μl of lysis buffer and incubated at room temperature for 4 hrs in the dark. cAMP content is measured using Perkin Elmer AlphaScreen™ cAMP assay kit and results are read on a Perkin Elmer Fusion fluorometer. The assay is completed in 384-well plates at 25 microliter volumes.

For data set [2], the target named is T1, GLP-1 receptor, endogenous in RINm5f cells (rat (RIN-m5F are called rat pancreas …, UniProt P32301 22-463)).
T1 construct: whole, on cells; also called GLP-1 receptors; GLP (RIN)
T1 sequence (looked up): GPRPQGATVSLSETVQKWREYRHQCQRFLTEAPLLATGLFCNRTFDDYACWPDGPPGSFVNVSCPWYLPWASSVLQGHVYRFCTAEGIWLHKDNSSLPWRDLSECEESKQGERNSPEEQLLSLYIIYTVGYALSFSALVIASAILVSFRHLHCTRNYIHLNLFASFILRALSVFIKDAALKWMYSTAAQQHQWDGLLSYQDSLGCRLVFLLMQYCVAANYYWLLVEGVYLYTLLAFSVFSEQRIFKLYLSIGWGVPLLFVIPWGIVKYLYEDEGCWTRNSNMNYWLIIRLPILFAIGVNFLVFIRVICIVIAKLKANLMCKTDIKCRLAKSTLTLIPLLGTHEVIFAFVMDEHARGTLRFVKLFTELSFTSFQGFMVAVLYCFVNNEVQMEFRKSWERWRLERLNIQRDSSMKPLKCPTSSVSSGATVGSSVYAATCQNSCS
Nature of the data set: 125I-GLP-1 displacement, RINm5f membranes.

Data set [3] has as its target T1, GLP-1 receptor, endogenous in RINm5f …. The experiment in a line: cell-based or functional assay.
Data set [4] concerns the target T2, GLP-1 receptor, endogenous in RINm5f cells (rat (RIN-m5F are called rat pancreas insulinoma cells)), P32301.
T2 chain: T1 sequence (looked up)
The experiment in a line: cell-based or functional assay.

On to “HGEGTFTSDLSKQLEEKAAKEFIEWLIQGGPSKEIIS-OH [Cmpd 5101]”, for which the “plasma stability as compared to native GLP-1” value is recorded as “increased plasma stability” in the data set “Plasma stability” and “increased plasma stability” in “Plasma stability” (second, narrower list of b152). Besides, the “GLU LOWERING AUC240 @2 nmol/kg” value with NH/Swiss mice is recorded as −10%. Further, a half-maximal effect in data set [1] (EC50) was put at 863 pM.

With `CCCCCCCC[C@H](NC(=O)[C@H](CCCCN)NC(=O)[C@H](CCCCN)NC(=O)[C@@H]1CCCN1C(=O)[C@H](CCCCN)NC(=O)CNC(=O)[C@H](CC(N)=O)NC(=O)[C@H](CCCCN)NC(=O)[C@H](CC(C)C)NC(=O)[C@H](Cc1ccccc1)NC(=O)[C@H](CCC(=O)O)NC(=O)[C@@H](NC(=O)[C@H](Cc1ccccc1)NC(=O)[C@H](CC(C)C)NC(=O)[C@H](CCCNC(=N)N)NC(=O)[C@@H](NC(=O)[C@H](C)NC(=O)[C@H](CCC(=O)O)NC(=O)[C@H](CCC(=O)O)NC(=O)[C@H](CCC(=O)O)NC(=O)[C@H](CC(C)C)NC(=O)[C@H](CCC(N)=O)NC(=O)[C@H](CCCCN)NC(=O)[C@H](CO)NC(=O)[C@H](CC(C)C)NC(=O)[C@H](CC(=O)O)NC(=O)[C@H](CO)NC(=O)[C@@H](NC(=O)[C@H](Cc1ccccc1)NC(=O)[C@@H](NC(=O)CNC(=O)[C@H](CCC(=O)O)NC(=O)CNC(=O)[C@@H](N)Cc1c[nH]cn1)[C@@H](C)O)[C@@H](C)O)C(C)C)[C@@H](C)CC)C(=O)N[C@@H](CCCNC(=N)N)C(=O)N[C@@H](Cc1ccc(O)cc1)C(=O)N[C@@H](CO)C(=O)O` [Cmpd 5269], in the data set with NH/Swiss mice, the “GLU LOWERING AUC240 @2 nmol/kg” value is recorded as −14%. Besides, in data set [1], the EC50 (usually the concentration that produces a half-maximal response) was found to be 1310 pM.

For the molecule `CCCCCCCC[C@H](NC(=O)[C@H](CCCCN)NC(=O)[C@H](CCCCN)NC(=O)[C@@H]1CCCN1C(=O)[C@H](CCCCN)NC(=O)CNC(=O)[C@H](CC(N)=O)NC(=O)[C@H](CCCCN)NC(=O)[C@H](CC(C)C)NC(=O)[C@H](Cc1c[nH]c2ccccc12)NC(=O)[C@H](CCC(=O)O)NC(=O)[C@@H](NC(=O)[C@H](Cc1ccccc1)NC(=O)[C@H](CC(C)C)NC(=O)[C@H](CCCNC(=N)N)NC(=O)[C@@H](NC(=O)[C@H](C)NC(=O)[C@H](CCC(=O)O)NC(=O)[C@H](CCC(=O)O)NC(=O)[C@H](CCC(=O)O)NC(=O)[C@H](C)NC(=O)[C@H](CCC(N)=O)NC(=O)[C@H](CCCCN)NC(=O)[C@H](CO)NC(=O)[C@H](CC(C)C)NC(=O)[C@H](CC(=O)O)NC(=O)[C@H](CO)NC(=O)[C@@H](NC(=O)[C@H](Cc1ccccc1)NC(=O)[C@@H](NC(=O)CNC(=O)[C@H](CCC(=O)O)NC(=O)CNC(=O)[C@@H](N)Cc1c[nH]cn1)[C@@H](C)O)[C@@H](C)O)C(C)C)[C@@H](C)CC)C(=O)N[C@@H](CCCNC(=N)N)C(=O)N[C@@H](Cc1ccc(O)cc1)C(=O)N[C@@H](CO)C(=O)O` [Cmpd 5268] (H-HGEGTFTSDLSKQAEEEAVRLFIEWLKNGKPKK[Gly(octyl)]RYS-OH; N-terminus assumed), in the data set with NH/Swiss mice, the “GLU LOWERING AUC240 @2 nmol/kg” value was −8%. The same molecule showed an EC50 in data set [1] of 489 pM.

As to HGEGTFTSDVTQQLEEEAVRLFIEWLKQGGPSSGAPPPS-NH2 [Cmpd 5099], in data set [2], the IC50 (as a rule, the midpoint of a concentration-inhibition curve) turned out to be 5000 pM. The “cAMP, CYCLASE GLP/GIP/CT (RIN) EC50” value in data set [3] turned out to be 1290 pM.

HGEGTYTNDVSSYLEGQAARLFIEWLQGGPSSGAPPPS-NH2 (also: table prints an unexplained underscore after L26) [Cmpd 5183] gave an IC50 in data set [2] of 310 pM. For the same molecule, in data set [3], the “cAMP, CYCLASE GLP/GIP/CT (RIN) EC50” value was 210 pM.

B1: Cmpd 5268 (peptide)
peptide: HGEGTFTSDLSKQAEEEAVRLFIEWLKNGKPKK[Gly(octyl)]RYS-OH
modifications: N-terminus assumed
SMILES: CCCCCCCC[C@H](NC(=O)[C@H](CCCCN)NC(=O)[C@H](CCCCN)NC(=O)[C@@H]1CCCN1C(=O)[C@H](CCCCN)NC(=O)CNC(=O)[C@H](CC(N)=O)NC(=O)[C@H](CCCCN)NC(=O)[C@H](CC(C)C)NC(=O)[C@H](Cc1c[nH]c2ccccc12)NC(=O)[C@H](CCC(=O)O)NC(=O)[C@@H](NC(=O)[C@H](Cc1ccccc1)NC(=O)[C@H](CC(C)C)NC(=O)[C@H](CCCNC(=N)N)NC(=O)[C@@H](NC(=O)[C@H](C)NC(=O)[C@H](CCC(=O)O)NC(=O)[C@H](CCC(=O)O)NC(=O)[C@H](CCC(=O)O)NC(=O)[C@H](C)NC(=O)[C@H](CCC(N)=O)NC(=O)[C@H](CCCCN)NC(=O)[C@H](CO)NC(=O)[C@H](CC(C)C)NC(=O)[C@H](CC(=O)O)NC(=O)[C@H](CO)NC(=O)[C@@H](NC(=O)[C@H](Cc1ccccc1)NC(=O)[C@@H](NC(=O)CNC(=O)[C@H](CCC(=O)O)NC(=O)CNC(=O)[C@@H](N)Cc1c[nH]cn1)[C@@H](C)O)[C@@H](C)O)C(C)C)[C@@H](C)CC)C(=O)N[C@@H](CCCNC(=N)N)C(=O)N[C@@H](Cc1ccc(O)cc1)C(=O)N[C@@H](CO)C(=O)O
notes: tested as C-terminal acid (-OH)
B1 had an IC50 in data set [2] of 110 pM. Moreover, the “cAMP, CYCLASE GLP/GIP/CT (RIN) EC50” value in data set [3] came to 489 pM.

B2: Cmpd 5269 (peptide)
peptide: HGEGTFTSDLSKQLEEEAVRLFIEFLKNGKPKK[Gly(octyl)]RYS-OH
modifications: N-terminus assumed
SMILES: CCCCCCCC[C@H](NC(=O)[C@H](CCCCN)NC(=O)[C@H](CCCCN)NC(=O)[C@@H]1CCCN1C(=O)[C@H](CCCCN)NC(=O)CNC(=O)[C@H](CC(N)=O)NC(=O)[C@H](CCCCN)NC(=O)[C@H](CC(C)C)NC(=O)[C@H](Cc1ccccc1)NC(=O)[C@H](CCC(=O)O)NC(=O)[C@@H](NC(=O)[C@H](Cc1ccccc1)NC(=O)[C@H](CC(C)C)NC(=O)[C@H](CCCNC(=N)N)NC(=O)[C@@H](NC(=O)[C@H](C)NC(=O)[C@H](CCC(=O)O)NC(=O)[C@H](CCC(=O)O)NC(=O)[C@H](CCC(=O)O)NC(=O)[C@H](CC(C)C)NC(=O)[C@H](CCC(N)=O)NC(=O)[C@H](CCCCN)NC(=O)[C@H](CO)NC(=O)[C@H](CC(C)C)NC(=O)[C@H](CC(=O)O)NC(=O)[C@H](CO)NC(=O)[C@@H](NC(=O)[C@H](Cc1ccccc1)NC(=O)[C@@H](NC(=O)CNC(=O)[C@H](CCC(=O)O)NC(=O)CNC(=O)[C@@H](N)Cc1c[nH]cn1)[C@@H](C)O)[C@@H](C)O)C(C)C)[C@@H](C)CC)C(=O)N[C@@H](CCCNC(=N)N)C(=O)N[C@@H](Cc1ccc(O)cc1)C(=O)N[C@@H](CO)C(=O)O
notes: as for B1
B2 returned an IC50 in data set [2] of 88 pM. Further, the “cAMP, CYCLASE GLP/GIP/CT (RIN) EC50” value in data set [3] worked out at 1310 pM.

Molecule HAEGTFTSDVSSYLEGQAAKEFIAWLVKGRGGG (not fully specified; modifications not checked) [Cmpd 4844, GLP-1-(7-37)-GG(S)-2,6-diamino-1-(thiazolidin-3-y1)hexan-1-one amide] had a cAMP, CYCLASE GLP/GIP/CT (RIN) EC50 in data set [4] of 130 pM.

In data set [4], HAEGTFTSDVSSYLEGQAAKEFIAWLVKGRGGG (not fully specified; modifications not checked) [Cmpd 4845, GLP-1-(7-37)-GG-(S)-2,6-diamino-1-(thiazolidin-2-cyano-3-y1)hexan-1-one amide] had a cAMP, CYCLASE GLP/GIP/CT (RIN) EC50 of 400 pM.

Molecule HGEGTFTSDLVKILEAEAVRKFIEFLKN-NH2 [Cmpd 5052] returned an IC50 in data set [2] of 560 pM. Further, the “cAMP, CYCLASE GLP/GIP/CT (RIN) EC50” value in data set [3] is 4500 pM.

The molecule HGEGTFTSDLSKQLEEEAVRLFIEWLKNPGGKEIIS (tested as C-terminal acid (-OH)) [Cmpd 5296] gave a 50% inhibitory concentration (IC50) in data set [2] of 4000 pM. In data set [3], the “cAMP, CYCLASE GLP/GIP/CT (RIN) EC50” value amounted to 145 pM.
